The target in test [1] is T1, VEGFR2-Fc (R&D Systems) (UniProt P35968 20-764).
T1 construct: Bought reagent; not shown: Fc part of the bought fusion; not described
Nature of the test: SPR (Biacore), VEGFR2-Fc immobilised directly on a CM5 chip, binder in solution; V2B domain; VEGFR2-Fc; average. As to the method:
(§1) A concentration series of the midscale purification of the tandem construct 385A08-Fn-V2B (non pegylated, his-tagged version, SEQ ID NO: 8) was also evaluated. The functionality of each of the domains of this construct, specifically, the V2B domain, and the IGF-IR domain, was evaluated as described in the materials and methods section below.
(§2) The functionality of the V2B domain was assessed by evaluating a concentration series of the midscale and large scale purification of the tandem construct 385A08-Fn-V2B (pegylated, and non-pegylated versions, his-tag and non-his-tag versions) vs. VEGFR2-Fc that was directly immobilized on a CM5 chip surface (GE, Piscataway, N.J.). VEGFR2-Fc (R&D Systems, MN) was diluted to 12 ug/mL in 50 mM Acetate pH 5.0 for an immobilization level of ˜1300 RU. Varying concentrations of 385A08-Fn-V2B in the solution phase were monitored for association (2 minutes) and dissociation (10 minutes) kinetics at a flow rate of 50 uL/min. Two 30 second injections of 50 mM glycine pH 1.7 were used to regenerate the surface.
Background: Surface plasmon resonance follows binding to a sensor surface in real time, without labels.

For test [2], the target named is T1, VEGFR2-Fc (R&D Systems). Nature of the test: SPR (Biacore), VEGFR2-Fc immobilised directly on a CM5 chip, binder in solution; V2B domain; VEGFR2-Fc. As to the method: as §2
Test [3] addresses T2, human IGF-IR-Fc fusion (human, UniProt P08069 31-932).
T2 construct: range 1-932; If it counts on the precursor, it includes the signal peptide; also called IGF1R-Fc; not shown: hinge and constant regions of human IgG
Nature of the test: SPR (Biacore), IGF-IR-Fc captured on anti-human IgG, binder in solution (n of 1); IGF-IR domain; IGF-IR-Fc; n of 1. As to the method: as §1
Another method to assess the functionality of the IGF-IR domain is to capture the IGF—IR-Fc on anti-human IgG (GE, Piscataway, N.J.). This was done for the midscale purified construct 385A08-Fn-V2B (non-pegylated, his-tag) as described in Example 5 above. The anti-human IgG was immobilized on flow cells 1 and 2 of a CM5 chip surface according the manufacturer's instructions. 100 nM human IGF—IR-Fc was injected for 2 minutes at 10 ul/min on flow cell 2. Subsequently a concentration series of the midscale prep was injected across both flow cell surfaces at 50 uL/min. Two injections of 50 mM Glycine pH 1.7 were used to regenerate the surface.

For test [4], the target named is T2, human IGF-IR-Fc fusion. Nature of the test: SPR (Biacore), IGF-IR-Fc captured on Protein A/G, HTPP purified binder in solution, n=1, KD approximate.
Test [5] concerns the target T3, human IGF-IR on cells (human, UniProt P08069 31-1367). Nature of the test: cell-based or functional assay.
Test [6] addresses VEGFR2 fusion protein on Ba/F3 cells (extracellular domain of hVEGFR2 and intracellular domain of hEpoR) (human, UniProt P35968 20-764; P19235 274-508, limits assumed). As to the kind of experiment: cell-based or functional assay.
Test [7] has as its target T3, human IGF-IR on cells. As to the kind of experiment: cell-based or functional assay. The source holds these as a separate data set.
Test [8] deals with T3, human IGF-IR on cells. As to the kind of experiment: competitive blocking assay on R+ cells overexpressing human IGF-IR; competitor 200 nM IRDye 800CW-labelled AT580-PEG20-AT580. As to the method: Certain tandem constructs were evaluated for their ability to compete with mono-specific IGF-IR and VEGFR-2 binders in vitro.
R⁺, a gift from Renato Baserga (Thomas Jefferson University, Philadelphia, Pa.), is a mouse embryo fibroblast overexpressing human IGF-IR in the context of a deletion in the mouse IGF-IR gene. Cells were plated in 96 well plates at a concentration of 20,000 cells per well in DMEM (Invitrogen, Carlsbad, Calif.) containing 5% calf serum (Hyclone, Logan, Utah). The following day, cells were washed twice in serum free DMEM containing 0.1% BSA (Invitrogen, Carlsbad, Calif.). After the washes, the cells were incubated at 4° C. for 10 minutes in binding buffer (serum free DMEM+0.1% BSA) containing increasing concentrations of IGF-IR antagonists or controls. Typical controls included the mono-specific ¹⁰Fn3-based IGF-IR binder (AT580-PEG40, SEQ ID NO: 27) (positive control) or the mono-specific ¹⁰Fn3-based VEGFR2 binder (Peg-V2Bshort, SEQ ID NO: 28) (negative control). Following this brief exposure to antagonists, R⁺ cells were additionally exposed to 200 nM of a bi-valent ¹⁰Fn3-based IGF-IR binder (AT580-PEG20-AT580, SEQ ID NO: 27) labeled with IRDye 800CW according to the manufacturer instructions (Li-Cor Biosciences, Lincoln, Nebr.). […] The resulting data was analyzed using GraphPad Prism (GraphPad Software, La Jolla, Calif.).

Test [9] has as its target T2, human IGF-IR-Fc fusion. As to the kind of experiment: SPR (Biacore), binding to IGF-IR-Fc, n=1.
Test [10] concerns the target T1, VEGFR2-Fc (R&D Systems). Nature of the test: SPR (Biacore T100), VEGFR2-Fc immobilised directly on a CM5 chip; average over constructs; average over midscale and large scale material, with and without his tag; VEGFR2-Fc. As to the method: (§3) Affinity data was also measured from midscale and large scale material, for the pegylated version of the tandem construct 385A08-Fn-V2B-cys (SEQ ID NO: 9, with and without his tag). The specific materials and methods for these calculations are described below.
(§4) An alternative method is to capture the IGF—IR-Fc on Protein A. This method was used for calculating the affinity and kinetics of certain versions of the construct 385A08-Fn-V2B-cys (both pegylated and non-pegylated and with or without his tag) from midscale and large scale materials. Specifically, IGF—IR-Fc was captured on Protein A immobilized on a Biacore CM5 sensor chip by amine coupling. VEGFR2-Fc was immobilized directly on a CM5 chip by amine coupling. […] Sensorgrams were obtained at each concentration and were evaluated using Biacore T100 evaluation software to determine the rate constants kₐ (kₒₙ) and kd (koff).
(§5) The functionality of the V2B domain was assessed by evaluating a concentration series of the midscale and large scale purification of the tandem construct 385A08-Fn-V2B (pegylated, and non-pegylated versions, his-tag and non-his-tag versions) vs. VEGFR2-Fc that was directly immobilized on a CM5 chip surface (GE, Piscataway, N.J.). […] Varying concentrations of 385A08-Fn-V2B in the solution phase were monitored for association (2 minutes) and dissociation (10 minutes) kinetics at a flow rate of 50 uL/min. […]

The target of test [11] is T1, VEGFR2-Fc (R&D Systems). Nature of the test: SPR (Biacore T100), VEGFR2-Fc immobilised directly on a CM5 chip; average over constructs; average over midscale and large scale material, with and without his tag; VEGFR2. As to the method: as §3, §4, §5
Test [12] concerns the target T2, human IGF-IR-Fc fusion. As to the kind of experiment: SPR (Biacore T100), IGF-IR-Fc captured on Protein A; average over constructs; average over midscale and large scale material, with and without his tag; IGF1R-Fc. As to the method: as §3
(§6) An alternative method is to capture the IGF—IR-Fc on Protein A. This method was used for calculating the affinity and kinetics of certain versions of the construct 385A08-Fn-V2B-cys (both pegylated and non-pegylated and with or without his tag) from midscale and large scale materials. Specifically, IGF—IR-Fc was captured on Protein A immobilized on a Biacore CM5 sensor chip by amine coupling. VEGFR2-Fc was immobilized directly on a CM5 chip by amine coupling. The affinity and kinetic analysis involved the capture of IGF—IR-Fc on Protein A followed by injection of the tandem adnectin in solution over IGF—IR-Fc and VEGFR2-Fc. The analytical surface was regenerated between samples with glycine pH 1.5. Sensorgrams were obtained at each concentration and were evaluated using Biacore T100 evaluation software to determine the rate constants kₐ (kₒₙ) and kd (koff).

Test [13] has as its target T2, human IGF-IR-Fc fusion. As to the kind of experiment: SPR (Biacore T100), IGF-IR-Fc captured on Protein A; average over constructs; average over midscale and large scale material, with and without his tag; IGF1R. As to the method: as §3, §6

What is called koff is a measure of how fast the partners let go of each other. The term kon denotes the rate constant with which the complex forms. For orientation: Kd means the constant that tells how readily two partners part at equilibrium. Low readings indicate a tighter complex, high ones a looser complex. A word on the IC50: it is the concentration needed to halve the response being measured. A low value points to inhibition by little substance.

Substitutions are numbered along the chain they refer to. In names and notes the source's numbering stands.

B1: 385A08-Fn-V2B (non pegylated, his-tagged version) (designed binder)
chain: GVSDVPRDLEVVAATPTSLLISWSARLKVARYYRITYGETGGNSPVQEFTVPKNVYTATISGLKPGVDYTITVYAVTRFRDYQPISINYRTEIDKPSTSTSTVSDVPRDLEVVAATPTSLLISWRHPHFPTRYYRITYGETGGNSPVQEFTVPLQPPTATISGLKPGVDYTITVYAVTDGRNGRLLSIPISINYRTEIDKPSQHHHHHH
notes: also called 385A08-Fn-V2B (Ser tail); 385A08-Fn-V2B (with his tag)
Turning to B1, the figures for the koff in the test with VEGFR2-Fc (R&D Systems) [1] and with human IGF-IR-Fc fusion [3] were 0.00045 s⁻¹ and 0.00017 s⁻¹, respectively. Besides, the kon with VEGFR2-Fc (R&D Systems) [1] stood at 1.4e+06 M⁻¹ s⁻¹; with human IGF-IR-Fc fusion [3], 1.1e+07 M⁻¹ s⁻¹. Moreover, the dissociation constant (Kd) is about 0.3 nM with VEGFR2-Fc (R&D Systems) [2], about 0.02 nM with human IGF-IR-Fc fusion [3] and about 0.3 nM with human IGF-IR-Fc fusion [4]. Moreover, the “IC50, inhibition of proliferation of Rh41 cells (n=1)” value with human IGF-IR on cells [5] turned out to be 26 nM. In addition, in test [6], the “IC50, inhibition of VEGF-A dependent proliferation of Ba/F3 cells” value was 1 nM.

B2: AT580-PEG40 (designed binder)
chain: MGVSDVPRDLEVVAATPTSLLISWSARLKVARYYRITYGETGGNSPVQEFTVPKNVYTATISGLKPGVDYTITVYAVTRFRDYQPISINYRTEIDKPCQ
modifications: 40 kDa PEG at position 98 (cysteine)
For B2, the “IC50 for inhibition of pIGF-1R activity, Western blot, HMVEC-L cells stimulated with VEGF and IGF-1” value with human IGF-IR on cells [7] stood at 100 nM. The molecule also showed a concentration for half-maximal inhibition (IC50) with human IGF-IR on cells [8] of 600 nM.

B3: AT577 (designed binder)
chain: B2 chain with C98S
The molecule B3 displayed a Kd with human IGF-IR-Fc fusion [9] of 0.076 nM.

B4: pegylated version of the tandem construct 385A08-Fn-V2B-cys (with and without his tag) (designed binder)
chain: MGVSDVPRDLEVVAATPTSLLISWSARLKVARYYRITYGETGGNSPVQEFTVPKNVYTATISGLKPGVDYTITVYAVTRFRDYQPISINYRTEIDKPSTSTSTVSDVPRDLEVVAATPTSLLISWRHPHFPTRYYRITYGETGGNSPVQEFTVPLQPPTATISGLKPGVDYTITVYAVTDGRNGRLLSIPISINYRTEIDKPCQ
modifications: PEG on the single cysteine at position 203
notes: also called the various constructs tested
On to B4, for which the koff with VEGFR2-Fc (R&D Systems) [10] was found to be 0.000102 s⁻¹; with human IGF-IR-Fc fusion [12] it was 0.000247 s⁻¹. Also, the on-rate (kon) came out at 11500 M⁻¹ s⁻¹ with VEGFR2-Fc (R&D Systems) [10] and 315000 M⁻¹ s⁻¹ with human IGF-IR-Fc fusion [12]. Moreover, the Kd is 10.5 nM in the test with VEGFR2-Fc (R&D Systems) [11] and 0.84 nM with human IGF-IR-Fc fusion [13].

These data come from patent US20180265572A1 (Bristol-Myers Squibb, published 2018).
